From patent US20250257133A1 (ADAGENE PTE, published 2025)
Where two headings read alike, the source gives them in different places.

Assays:
HER2 on SK-OV-3 cells = target: T1, HER2 on SK-OV-3 cells (UniProt P04626 23-1255, limits assumed); assay: flow cytometry on SK-OV-3 cells, APC anti-human IgG Fc secondary antibody, mean fluorescence intensity, 4-parameter fit; drawn table
T1 construct: whole, on cells; also called HER2 antigen

[1] = target: Human CTLA4 (ligand competition ELISA) (human, UniProt P16410 36-161, limits assumed); assay: ELISA, blocking of CTLA4-CD80
Human CTLA4 (ligand competition ELISA), sequence (P16410 36-161 limits assumed): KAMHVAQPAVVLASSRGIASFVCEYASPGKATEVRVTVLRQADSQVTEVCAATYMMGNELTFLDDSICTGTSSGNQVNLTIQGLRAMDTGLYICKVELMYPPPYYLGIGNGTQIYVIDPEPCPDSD

[2] = target: T2, TROP2 on tumor cell lines (UniProt P09758 27-323, limits assumed); assay: flow cytometry, H292 cells
T2 construct: whole, on cells; also called tumor-associated calcium signal transducer 2; TROP2 on H292, NCI-N87, HT-29
T2 sequence (looked up): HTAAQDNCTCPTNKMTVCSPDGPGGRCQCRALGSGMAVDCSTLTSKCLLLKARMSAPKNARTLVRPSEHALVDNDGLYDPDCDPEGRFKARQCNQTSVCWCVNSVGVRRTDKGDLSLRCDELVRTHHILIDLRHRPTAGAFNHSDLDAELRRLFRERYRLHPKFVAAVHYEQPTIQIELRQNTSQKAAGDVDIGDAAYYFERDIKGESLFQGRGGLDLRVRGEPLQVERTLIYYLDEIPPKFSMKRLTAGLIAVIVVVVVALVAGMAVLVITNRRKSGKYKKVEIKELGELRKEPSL
Method: (§1) H292, NCI-N87, or HT29 cells were cultured and seeded in 96-well plates at 1.0×10⁵ cells/well and incubated with serially diluted test anti-TROP2 BsAbs for 30 minutes at 4° C. in 2% FBS/RPMI1640 buffer. Next, the cells were washed twice with DPBS and further incubated with secondary anti-human IgG antibodies (APC-anti-human IgG Fc antibody, 1:300 dilution for H292 cell; APC-F (ab′) 2 fragment goat anti-human IgG (H+L), 1:500 dilution for NCI-N87 and HT29 cells) for 30 minutes at 4° C. Finally, the cells were washed twice with DPBS and resuspended in FACS buffer for flow cytometry analysis. For analysis, the MFI values versus concentrations were plotted using FlowJo 10 software (FlowJo LLC) and the data were further fitted with four-parameter non-linear regression to obtain EC₅₀ values by GraphPad Prism version 7 for Windows.

[3] = target: T2, TROP2 on tumor cell lines; assay: flow cytometry, NCI-N87 cells
Method: as §1

[4] = target: T2, TROP2 on tumor cell lines; assay: flow cytometry, HT-29 cells
Method: as §1

[5] = target: T3, His-tagged human CTLA4 protein (human, UniProt P16410 36-161, limits assumed); assay: Octet BLI, mAb captured;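 on Kd: Anti-human Fc biosensors captured the antibodies, then His-tagged protein analytes at 100 nM associated for 300 s and dissociated for 300 s, fitted by a 1:1 Langmuir model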;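 on koff: Anti-human Fc biosensors captured the antibodies, then His-tagged protein analytes at 100 nM associated for 300 s and dissociated for 300 s, fitted by a 1:1 Langmuir model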
T3 construct: not shown: His tag
T3 sequence (P16410 36-161 limits assumed): as the sequence (P16410 36-161 limits assumed) above

Human CD28 on cells = target: T4, Human CD28 on cells (human, UniProt P10747 19-220); assay: flow cytometry, Jurkat cells
T4 construct: Jurkat E6-1 cells, primary human T cells, or transfected HEK293F cells; also called CD28 on Jurkat cells; CD28 on human CD3+ T cells
Method: Next, the cells were washed twice with DPBS and further incubated with a APC-anti-human IgG Fc secondary antibody (1 μg/mL, 100 μL/well, Biolegend) for 30 minutes at 4° C. Finally, the cells were washed twice with DPBS and suspended in FACS buffer for flow cytometry analysis. For analysis, the Mean Fluorescence Intensity (MFI) values versus concentrations were plotted using FlowJo 10 software (FlowJo LLC) and the data were further fitted with four-parameter non-linear regression to obtain EC₅₀ values by GraphPad Prism version 7 for Windows, GraphPad Software, La Jolla California USA, www.graphpad.com.

[6] = target: T5, His-tagged human CD28 protein (human, UniProt P10747 19-152); assay: Octet BLI, mAb captured;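 further: Anti-human Fc biosensors captured the antibodies, then His-tagged protein analytes at 100 nM associated for 300 s and dissociated for 300 s, fitted by a 1:1 Langmuir model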
T5 construct: not shown: His tag

[7] = target: T6, Recombinant mouse CD28-Fc (mouse, UniProt P31041 20-150); assay: ELISA on coated recombinant mouse CD28-Fc, HRP anti-human IgG (Fab specific), A450; panel 'Mouse CD28'
T6 construct: not shown: Fc part
T6 sequence (P31041 20-150 limits assumed): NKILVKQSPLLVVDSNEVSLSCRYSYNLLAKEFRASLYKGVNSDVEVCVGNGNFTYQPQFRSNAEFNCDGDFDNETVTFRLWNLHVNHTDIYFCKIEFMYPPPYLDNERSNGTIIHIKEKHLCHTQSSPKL

[8] = target: Human CD28 (ELISAs of Examples 4 and 13) (human, UniProt P10747 19-152, limits assumed); assay: ELISA, blocking of CD28-CD80
[9] = target: T3, His-tagged human CTLA4 protein; assay: Octet BLI, mAb captured; remark: listed apart in the source;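 on Kd: Anti-human Fc biosensors captured the antibodies, then His-tagged protein analytes at 100 nM associated for 300 s and dissociated for 300 s, fitted by a 1:1 Langmuir model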
Method: The Octet® RED96 Systems (ForteBio) was used to assess the binding kinetics of the panel of anti-CD28 mAbs to human CD28 and CTLA4. Briefly, the mAbs were diluted to 15 μg/mL in kinetic buffer (PBS supplemented with 0.02% Tween 20 and 0.1% BSA), and captured by Dip and Read AHC biosensors (ForteBio) in parallel. The sensors were then allowed to associate with His-tagged human CD28 and CTLA4 proteins (100 nM) for 300 seconds, and to dissociate in kinetic buffer for another 300 seconds. The association and dissociation curves were fitted to a 1:1 Langmuir binding model using the Octet® Data Analysis Software Version 7.1 (ForteBio).

[10] = target: T7, Recombinant human CD28-Fc (human, UniProt P10747 19-152); assay: ELISA, coated CD28-Fc
T7 construct: not shown: Fc part

[11] = target: T7, Recombinant human CD28-Fc; assay: ELISA on coated recombinant human CD28-Fc, HRP anti-human IgG (Fab specific), A450
Method: (§2) When measuring the masking efficiency through ELISA, recombinant human CD28-Fc was diluted to 2 g/mL in PBS and coated onto a MaxiSorp™ high protein-binding capacity 96 well ELISA plate (ThermoFisher Scientific) at 4° C. overnight. Plates were blocked with PBS supplemented with 3% non-fat milk at 37° C. for 1 hour. After washing, 100 μL of 3-fold serial dilutions of anti-CD28 test mAbs were added to each well. After incubation at 37° C. for 1 hour, plates were washed four times, and 100 μL horseradish peroxidase (HRP)-conjugated anti-human IgG (Fab specific) (1:6000 dilution) secondary antibody was added to each well. Plates were incubated at 37° C. for 1 hour, washed four times, and then 50 μL a TMB substrate (3, 3′, 5, 5′-tetramethylbenzidine) solution was added to each well, and the plate was incubated at room temperature. Absorbance at 450 nm was measured after the reactions were stopped with 50 μL sulfuric acid stop solution per well. The EC₅₀ was evaluated by fitting the ELISA data using the sigmoidal (four-parameter logistic equation) model of GraphPad Prism version 6 for Windows, GraphPad Software, La Jolla California USA, www.graphpad.com.

[12] = target: T7, Recombinant human CD28-Fc; assay: as above; remark: listed apart in the source
Method: as §2

[13] = target: T6, Recombinant mouse CD28-Fc; assay: ELISA, coated CD28-Fc
Method: Recombinant human and mouse CD28-Fc were diluted to 2 g/mL in PBS and coated on Nunc MaxiSorp™ high protein-binding capacity 96 well ELISA plates (ThermoFisher Scientific) at 4° C. overnight. Plates were blocked with PBS supplemented with 3% non-fat milk at 37° C. for 1 hour. After washing, 50 PL of 3-fold serial dilutions of a panel of anti-CD28 test mAbs were added to each well. After incubation at 37° C. for 1 hour, plates were washed four times, and 100 μL of a horseradish peroxidase (HRP)-conjugated anti-human IgG (Fab specific) (1:6000 dilution) secondary antibody was added to each well. Plates were incubated at 37° C. for 1 hour, washed four times, and then 50 μL of a TMB substrate (3, 3′, 5, 5′-tetramethylbenzidine) solution was added to each well, and the plate was incubated at room temperature. Absorbance at 450 nm was measured after the reactions were stopped by adding 50 μL of a sulfuric acid stop solution to each well. The EC₅₀ was evaluated by fitting the ELISA data using the asymmetrical sigmoidal (4-parameter logistic equation) model of GraphPad Prism version 7 for Windows, GraphPad Software, La Jolla California USA, www.graphpad.com.

B1: TY25238 (bispecific antibody)
chain 1: not shown
chain 2: not shown
chain 3: QAVVTQEPSLTVSPGGTVTLTCGSSTGAVTTSNYPNWVQQKPGQAPRGLIGGTNKRAPGVPARFSGSLLGGKAALTLSGAQPEDEAEYYCALWYSNLWVFGGGTKLTVLGGGGSGGGGSGGGGSGGGGSEVQLVESGGGLVQPGGSLRLSCAASGFTFNTYAINWVRQAPGKGLEWVGRIRSKYNNYATYYAESVKGRFTISRDDSKNTLYLQINSLRAEDTAVYYCVRHGNFGTSYVSWFAYWGQGTLVTVSSEPKSSDKTHTCPPCPAPELLGGPSVFLFPPKPKDTLMISRTPEVTCVVVDVSHEDPEVKFNWYVDGVEVHNAKTKPREEQYASTYRVVSVLTVLHQDWLNGKEYKCKVSNKALPAPIEKTISKAKGQPREPQVYTDPPSRDELTKNQVSLTCLVDGFYPSDIAVEWESNGQPENCYKTTPPVLDSDGSFFLYSKLTVDKSRWQQGNVFSCSVMHEALHNHYTQDSLSLSPGK
HER2 on SK-OV-3 cells
  EC50: 3.74 nM

B2: TY21580 (antibody, V domains shown)
VH: EVQLVESGGGLVQPGGSLRLSCAASGYSISSGYHWSWIRQAPGKGLEWLARIDWDDDKYYSTSLKSRLTISRDNSKNTLYLQLNSLRAEDTAVYYCARSYVYFDYWGQGTLVTVSS
VL: DIQLTQSPSSLSASVGDRVTITCRASQSVRGRFLAWYQQKPGKAPKLLIYDASNRATGIPSRFSGSGSGTDFTLTISSLQPEDFATYYCQQSSSWPPTFGQGTKVEIKR
[1]
  IC50: 37.2 nM

B3: TY27571 (bispecific antibody, human IgG1, kappa, N297A)
light: DIQLTQSPSSLSASVGDRVTITCRASQDVSIAVAWYQQKPGKAPKLLIYSASYRYTGVPARFSGSGSGTDFTLTISSLQPEDFATYYCQQHYITPLTFGQGTKVEIKRTVAAPSVFIFPPSDEQLKSGTASVVCLLNNFYPREAKVQWKVDNALQSGNSQESVTEQDSKDSTYSLSSTLTLSKADYEKHKVYACEVTHQGLSSPVTKSFNRGEC
heavy: QVQLLQSGSELKKPGASVKVSCKASGYTFTNYGINWVRQAPGQGLEWLGWIHTYTGEPTYTDDFKGRFVFSLDTSVSTAYLQISSLKADDTAVYYCARGGFGSSYWYFDVWGQGTLVTVSSASTKGPSVFPLAPSSKSTSGGTAALGCLVKDYFPEPVTVSWNSGALTSGVHTFPAVLQSSGLYSLSSVVTVPSSSLGTQTYICNVNHKPSNTKVDKKVEPKSCDKTHTCPPCPAPELLGGPSVFLFPPKPKDTLMISRTPEVTCVVVDVSHEDPEVKFNWYVDGVEVHNAKTKPREEQYASTYRVVSVLTVLHQDWLNGKEYKCKVSNKALPAPIEKTISKAKGQPREPQVYTLPPSRKKLTKNQVKLTCLVKGFYPSDIAVEWESNGQPENNYKTTPPVLDCDGSFFLYSKLTVDKSRWQQGNVFSCSVMHEALHNHYTQKSLSLSPGK
chain: DIQLTQSPSSLSASVGDRVTITCRASQSVDFHGISFLHWYQQKPGKAPKLLIYAASSLQSGVPSRFSGSGSGTDFTLTISSLQPEDFATYYCQQSYRSPRTFGQGTKVEIKGGGGSGGGGSGGGGSGGGGSEVQLVESGGGLVQPGGSLRLSCAASGFSLSTGGVGVSWIRQAPGKGLEWIGEIYHSGSTYYSPSLKSRVTISRDNSKNTLYLQLNSLRAEDTAVYYCARYEYYYYDFDYWGQGTLVTVSSEPKSSDKTHTCPPCPAPELLGGPSVFLFPPKPKDTLMISRTPEVTCVVVDVSHEDPEVKFNWYVDGVEVHNAKTKPREEQYASTYRVVSVLTVLHQDWLNGKEYKCKVSNKALPAPIEKTISKAKGQPREPQVYTDPPSRDELTKNQVSLTCLVDGFYPSDIAVEWESNGQPENCYKTTPPVLDSDGSFFLYSKLTVDKSRWQQGNVFSCSVMHEALHNHYTQDSLSLSPGK
notes: also called anti-TROP2xCD28 BsAb
[2]
  EC50: 0.822 nM
[3]
  EC50: 0.911 nM
[4]
  EC50: 0.559 nM

B4: TY24773 (antibody, human IgG4 S228P, kappa, V domains shown)
VH: EVQLVESGGGLVQPGGSLRLSCAASGYSISSGYHWGWIRQAPGKGLEWIGEIYHSGSTYYSPSLKSRVTISRDNSKNTLYLQLNSLRAEDTAVYYCARKDYYYALDYWGQGTLVTVSS
VL: DIQLTQSPSSLSASVGDRVTITCRASQSVDFYGKSFLHWYQQKPGKAPKLLIYAASTLQSGVPSRFSGSGSGTDFTLTISSLQPEDFATYYCQQSYRTPLTFGQGTKVEIKR
notes: hIgG4/S241P
[5]
  binding result: no binding (tested: 100 nM CTLA4)
Human CD28 on cells
  EC50: 0.71 nM
[6]
  Kd: 8.29 nM
  koff: 0.000319 s⁻¹
  kon: 38500 M⁻¹ s⁻¹

B5: TY24853 (antibody, human IgG4 S228P, kappa, V domains shown)
VH: EVQLVESGGGLVQPGGSLRLSCAASGYSITSGHHWSWIRQAPGKGLEWIGEIYHSGSTYYSPSLKSRVTISRDNSKNTLYLQLNSLRAEDTAVYYCARKDDYYAFDYWGQGTLVTVSS
VL: DIQLTQSPSSLSASVGDRVTITCRASESVDFYGISFLHWYQQKPGKAPKLLIYAASTLQSGVPSRFSGSGSGTDFTLTISSLQPEDFATYYCQQSYRTPITFGQGTKVEIKR
notes: hIgG4/S241P
[5]
  binding result: no binding (tested: 100 nM CTLA4)
Human CD28 on cells
  EC50: 0.43 nM
[6]
  Kd: 3.96 nM
  koff: 0.000164 s⁻¹
  kon: 41600 M⁻¹ s⁻¹

B6: TY24890 (antibody, human IgG4 S228P, kappa, V domains shown)
VH: EVQLVESGGGLVQPGGSLRLSCAASGYSISSGHHWGWIRQAPGKGLEWIGEIYHSGSTYYSPSLKSRVTISRDNSKNTLYLQLNSLRAEDTAVYYCARRELGYAYFDYWGQGTLVTVSS
VL: EIVLTQSPATLSLSPGERATLSCRASQDIRKYLAWYQQKPGQAPRLLIYAASTLQSGVPARFSGSGSGTDFTLTISSLEPEDFAVYYCQQYYRTPLTFGQGTKVEIKR
notes: hIgG4/S241P
[7]
  binding result: no binding (tested: about 10^-6.9 M)
[8]
  IC50: 0.21 nM
Human CD28 on cells
  EC50: 0.59 nM
[6]
  Kd: 4.44 nM
  koff: 0.000437 s⁻¹
  kon: 98500 M⁻¹ s⁻¹
[9]
  Kd: 3.13 nM
  koff: 0.00344 s⁻¹
  kon: 1.1e+06 M⁻¹ s⁻¹
[10]
  EC50: 1.55 nM

B7: TY24865 (antibody, human IgG4 S228P, kappa)
heavy: not shown
light: DIQLTQSPSSLSASVGDRVTITCRASQSVDFHGISFLHWYQQKPGKAPKLLIYAASSLQSGVPSRFSGSGSGTDFTLTISSLQPEDFATYYCQQSYRSPRTFGQGTKVEIKRTVAAPSVFIFPPSDEQLKSGTASVVCLLNNFYPREAKVQWKVDNALQSGNSQESVTEQDSKDSTYSLSSTLTLSKADYEKHKVYACEVTHQGLSSPVTKSFNRGEC
notes: hIgG4/S241P; also called parental anti-CD28 antibody
[8]
  IC50: 0.68 nM
[11]
  EC50 (read off the curve): ~0.7 nM
Human CD28 on cells
  EC50: 0.46 nM
[6]
  Kd: < 0.001 nM
[9]
  binding result: no binding (tested: 100 nM CTLA4)
[12]
  EC50 (read off the curve): ~0.9 nM
[13]
  EC50: > 4.94 nM
[10]
  EC50: 0.58 nM
